Results from US20140179896A1 (published 2014).
Changes are numbered by the printed parent chain. Names may count otherwise.

Key:
[1] = biological target: T1, mouse vascular endothelial growth factor receptor-2 Fc chimera (Flk-1-Fc) (mouse, UniProt P35918 20-762); assay: KD against mouse Flk-1 by the BIAcore binding assay; value not given
T1 construct: Purchased from R&D Systems; also called mouse VEGF-R2; not shown: Fc part of the purchased chimera
Protocol: Following the methodologies described in the preceding Examples, additional ¹⁰Fn3-based KDR binding proteins were generated. As described for the development of the M5FL protein in Example 5, above, proteins were tested for KD against human KDR and mouse Flk-1 using the BIAcore binding assay and for IC50 in a Ba/F3 assay.
(§1) The binding kinetics of fibronectin-based scaffold proteins binding proteins to the target was measured using BIAcore 2000 biosensor (Pharmacia Biosensor). Human and mouse VEGF-R2-Fc fusions were immobilized onto a CM5 sensor chip and soluble binding proteins were injected at concentrations ranging from 0 to 100 nM in buffer 0 (10 mM HEPES, 150 mM NaCl, 0.005% Tween 20, pH 7.4). Sensorgrams were obtained at each concentration and were evaluated using a program, BIA Evaluation 2.0 (BIAcore), to determine the rate constants kₐ (kₒₙ) and kd (koff.) The affinity constant, KD was calculated from the ratio of rate constants […].
T1 sequence (P35918 20-762, stated change not applied): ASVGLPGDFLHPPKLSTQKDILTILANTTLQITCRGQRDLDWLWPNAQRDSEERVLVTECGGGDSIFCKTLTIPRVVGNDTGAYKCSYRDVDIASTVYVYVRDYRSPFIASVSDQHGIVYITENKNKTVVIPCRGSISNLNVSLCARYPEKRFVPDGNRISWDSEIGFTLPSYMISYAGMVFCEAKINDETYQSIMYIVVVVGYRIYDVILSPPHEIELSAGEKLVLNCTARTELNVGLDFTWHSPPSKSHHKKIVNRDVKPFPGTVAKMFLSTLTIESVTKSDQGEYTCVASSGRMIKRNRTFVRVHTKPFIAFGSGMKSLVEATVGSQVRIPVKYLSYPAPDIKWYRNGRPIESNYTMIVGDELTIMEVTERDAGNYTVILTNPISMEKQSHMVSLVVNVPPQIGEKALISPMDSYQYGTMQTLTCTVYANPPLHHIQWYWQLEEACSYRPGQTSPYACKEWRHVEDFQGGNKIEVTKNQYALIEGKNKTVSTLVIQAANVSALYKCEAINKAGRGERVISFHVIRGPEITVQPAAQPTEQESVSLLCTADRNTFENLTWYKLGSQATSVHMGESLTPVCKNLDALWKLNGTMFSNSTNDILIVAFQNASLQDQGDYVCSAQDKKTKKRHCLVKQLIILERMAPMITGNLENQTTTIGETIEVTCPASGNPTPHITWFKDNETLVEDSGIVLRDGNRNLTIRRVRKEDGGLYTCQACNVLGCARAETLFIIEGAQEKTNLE

[2] = biological target: T2, murine VEGFR-2/EpoR chimera (flk-1/EpoR fusion, pmKE2) on cells (mouse; human, UniProt P35918 20-762; P19235 251-508, limits assumed); assay: cell-based or functional assay
[3] = biological target: human KDR/EpoR fusion (phKE8) on Ba/F3 cells (human, UniProt P35968 20-764; P19235 251-508, limits assumed); assay: cell-based or functional assay
[4] = biological target: T3, full-length human KDR on cells (human, UniProt P35968 20-1356); assay: cell-based or functional assay
[5] = biological target: T4, human vascular endothelial growth factor receptor-2 Fc chimera (KDR-Fc) (human, UniProt P35968 20-764); assay: BIAcore, target-Fc immobilized
T4 construct: range 1-764; purchased from R&D Systems; also called hKDR; human VEGF-R2-Fc; not shown: human IgG1 Fc
Protocol: as §1

[6] = biological target: T5, mouse vascular endothelial growth factor receptor-2 Fc chimera (Flk-1-Fc) (mouse, UniProt P35918 20-762); assay: BIAcore, target-Fc immobilized
T5 construct: purchased from R&D Systems; also called mouse VEGF-R2-Fc; not shown: Fc part of the purchased chimera
Protocol: as §1
T5 sequence (P35918 20-762, stated change not applied): as above

[7] = biological target: T3, full-length human KDR on cells; assay: flow cytometry on CHO KDR cells
Protocol: (§2) The functionality of KDR and Flk-1 binding molecules in a cell culture model system was evaluated with E. coli produced binding molecules.
(§3) Binding of fibronectin-based scaffold protein to cell-surface KDR and Flk-1 was analyzed simultaneously on VEGF-R2-expressing and control cells by flow cytometry. CHO-pcDNA3 cells (control) were released from their dishes with trypsin-EDTA, washed in Dulbecco's PBS without calcium and magnesium (D-PBS⁻; Invitrogen), and stained for 30 minutes at 37° C. with 1.5 μM CMTMR (5-(and -6)-(((4-chloromethyl)benzoyl)amino)-tetramethylrhodamine) (Molecular Probes). The cells were washed in D-PBS⁻ and incubated for a further 30 minutes at 37° C., and then resuspended in blocking buffer (D-PBS⁻/10% fetal bovine serum) on ice. CHO-KDR or CHO-Flk cells were treated identically except that CMTMR was omitted. 75,000 of CMTMR-stained CHO-pcDNA3 cells were mixed with an equal number of unstained CHO-KDR or CHO-Flk cells in each well of a V-bottom 96-well plate. All antibodies and fibronectin-based scaffold proteins were diluted in 25 μl/well of blocking buffer, and each treatment was conducted for 1 hour at 4° C. Cell mixtures were stained with His₆-tagged (SEQ ID NO: 235) fibronectin-based scaffold proteins, washed twice with cold D-PBS⁻, and then treated with 2.5 μg/ml anti-His₆ (SEQ ID NO: 235) MAb (R&D Systems), washed, and stained with 4 μg/ml Alexa Fluor 488-conjugated anti-mouse antibody (Molecular Probes). For cells treated with an anti-KDR mouse monoclonal antibody (Accurate Chemical, Westbury, N.Y.) or an anti-flk-1 goat polyclonal antibody (R&D Systems), the anti-His₆ (SEQ ID NO: 235) step was omitted, and antibody binding was detected with the species-appropriate Alexa Fluor 488 conjugated secondary antibody (Molecular Probes). Following staining, cells were resuspended in 200 μl/well D-PBS⁻/1% FBS/1 μg/ml 7-aminoactinomycin D (7-AAD; Molecular Probes) and analyzed by flow cytometry on a FACSCalibur (Becton Dickinson, San Jose, Calif.) equipped with a […].

[8] = biological target: T2, murine VEGFR-2/EpoR chimera (flk-1/EpoR …); assay: flow cytometry on CHO Flk-1 cells
Protocol: as §2, §3

[9] = biological target: T4, human vascular endothelial growth …; assay: radioactive equilibrium binding assay
Protocol: (§4) To prepare ³⁵S-labeled binding proteins for analysis, mRNA was prepared as described above for RNA-protein fusion production but the linker ligation step was omitted. The mRNA was expressed using rabbit reticulocyte lysate translation kit (Ambion) in the presence of ³⁵S-labeled Met at 30° C. for 1 hour. Expressed protein was purified on M2-agarose Flag beads (Sigma) as described above. This procedure produced the encoded protein without the nucleic acid tail. In a direct binding assay, VEGF-R2-Fc fusions in concentrations ranging from 0 to 200 nM were added to a constant concentration of the purified protein (0.2 or 0.5 nM) and incubated at 30° C. for 1 hour in buffer B. The receptor-binder complexes were captured using Protein A magnetic beads for another 10 minutes at room temperature using a Kingfisher™ The beads were washed with six reaction volumes of buffer B. The protein was eluted from the beads with 100 μL of 0.1 M KOH. […] of the reaction mixture and elution were dried onto a LumaPlate-96 (Packard) and the amount of ³⁵S on the plate was measured using a TopCount NXT instrument (Packard). The amount of fibronectin-based scaffold protein bound to the target was estimated as a percent of radioactivity eluted from Protein A magnetic beads compare to radioactivity in the reaction mixture. Nonspecific binding of fibronectin-based scaffold proteins to the beads was determined by measuring binding in the absence of KDR-Fc and represented less than 1-2% of the input. Specific binding was obtained through subtraction of nonspecific binding from total binding. Data was analyzed using the GraphPad Prizm software (GraphPad Software, Inc, San Diego, Calif.), fitted using a one site, non-linear binding equation.

[10] = biological target: T5, mouse vascular endothelial growth …; assay: radioactive equilibrium binding assay
Protocol: as §4

[11] = biological target: T4, human vascular endothelial growth …; assay: radioactive equilibrium binding
Protocol: as §4, with “In a direct binding assay, VEGF-R2-Fc fusions in concentrations ranging from 0 to 200 nM were added to a constant concentration of the purified protein (0.2 or 0.5 nM) and incubated at 30° C. for 1 hour in buffer B. The receptor-binder complexes were captured using Protein A magnetic beads for another 10 minutes at room temperature using a Kingfisher™ The beads were washed with six reaction volumes of buffer B. The protein was eluted from the beads with 100 μL of 0.1 M KOH.” left out, “Specific binding was obtained through subtraction of nonspecific binding from total binding.” left out

[12] = biological target: T4, human vascular endothelial growth …; assay: radioactive equilibrium binding, 1 nM KDR-Fc
Outline: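 ³⁵S-Met-labeled binder protein, made by reticulocyte-lysate translation and Flag-purified, held at 0.2 or 0.5 nM with receptor-Fc (0–200 nM) for 1 h at 30° C in buffer B. Complexes captured on Protein A beads, washed, KOH-eluted. Bound signal given as % of input radioactivity minus bead-only background; one-site fit.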

[13] = biological target: T4, human vascular endothelial growth …; assay: radioactive equilibrium binding assay, KDR-Fc
Protocol: as §4

[14] = biological target: mouse vascular endothelial growth factor receptor-2 Fc chimera (Flk-1-Fc) (mouse) (UniProt P35918); assay: assay not given
[15] = biological target: full-length human KDR on cells (human, UniProt P35968 20-1356); assay: cell-based or functional assay; remark: listed apart in the source
[16] = biological target: T1, mouse vascular endothelial growth …; assay: Kd for Flk-1 against clone 159Q(8)L

T2 sequence (P35918 other isoform, or with tags, fused parts or gaps mutant limits assumed, form in doubt): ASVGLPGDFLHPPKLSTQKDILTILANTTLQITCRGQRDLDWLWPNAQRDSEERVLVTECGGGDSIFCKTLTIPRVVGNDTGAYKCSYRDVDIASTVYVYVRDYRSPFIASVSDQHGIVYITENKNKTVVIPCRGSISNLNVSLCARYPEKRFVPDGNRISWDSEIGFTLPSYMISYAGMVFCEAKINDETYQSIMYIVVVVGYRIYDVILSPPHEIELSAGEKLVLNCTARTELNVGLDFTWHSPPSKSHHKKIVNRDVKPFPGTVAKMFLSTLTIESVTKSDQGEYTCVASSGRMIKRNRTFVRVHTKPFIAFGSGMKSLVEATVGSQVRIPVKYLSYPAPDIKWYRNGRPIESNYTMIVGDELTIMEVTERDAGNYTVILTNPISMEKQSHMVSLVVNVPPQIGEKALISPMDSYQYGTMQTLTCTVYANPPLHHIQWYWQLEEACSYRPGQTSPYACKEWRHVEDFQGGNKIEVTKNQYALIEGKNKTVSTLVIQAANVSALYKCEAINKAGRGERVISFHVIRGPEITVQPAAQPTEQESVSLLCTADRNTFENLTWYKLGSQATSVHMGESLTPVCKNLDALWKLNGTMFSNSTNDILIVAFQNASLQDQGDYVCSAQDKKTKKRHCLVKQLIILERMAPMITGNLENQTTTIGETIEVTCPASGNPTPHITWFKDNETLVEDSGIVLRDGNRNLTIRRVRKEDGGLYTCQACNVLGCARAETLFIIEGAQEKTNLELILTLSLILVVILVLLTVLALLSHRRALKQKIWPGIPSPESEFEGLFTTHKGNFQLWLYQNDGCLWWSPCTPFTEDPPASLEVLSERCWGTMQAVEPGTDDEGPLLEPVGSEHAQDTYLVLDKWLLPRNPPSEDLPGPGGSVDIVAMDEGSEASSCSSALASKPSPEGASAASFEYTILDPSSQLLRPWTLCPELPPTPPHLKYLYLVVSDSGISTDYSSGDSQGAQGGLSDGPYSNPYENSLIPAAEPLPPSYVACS
mouse vascular endothelial growth factor receptor-2 Fc chimera (Flk-1-Fc) (mouse), sequence (P35918 20-762, change not shown): as the sequence (P35918 20-762, stated change not applied) above

B1: CT-01 (designed binder)
chain: EVVAATPTSLLISWRHPHFPTRYYRITYGETGGNSPVQEFTVPLQPPTATISGLKPGVDYTITVYAVTDGRNGRLLSIPISINYRT
notes: Core form of CT-01
[1]
  binding result: binds

B2: E26 (designed binder)
chain: B1 chain with V64G, D69V, G70E, L75E, S77M, I78T
notes: Del 1-8 10Fn3 clone; Flag-tagged in vitro translated protein in the radioactive assay, His6-tagged E. coli protein in BIAcore and cell assays; tags left out
[2]
  Inhibition of VEGF-induced proliferation, Ba/F3-Flk (IC50, nM): 5.3 nM
[3]
  Inhibition of VEGF-induced proliferation, Ba/F3-KDR (IC50, nM): 3.2 nM
[4]
  Inhibition of VEGF-induced proliferation of HUVEC cells (IC50, nM): 14 nM
[5]
  Kd: 0.51 nM
  koff: 5.8e-05 s⁻¹
  kon: 110000 M⁻¹ s⁻¹
[6]
  Kd: 2.14 nM
  koff: 0.000477 s⁻¹
  kon: 220000 M⁻¹ s⁻¹
[7]
  EC50: 2.6 nM
[8]
  EC50: 1.3 nM
[9]
  Kd: < 1.7 nM
[10]
  Kd: 2 nM

B3: E19 (designed binder)
chain: B1 chain with V64G, D69V, G70E, L75H, S77M, I78T
notes: as for B2
[2]
  Inhibition of VEGF-induced proliferation, Ba/F3-Flk (IC50, nM): 5.8 nM
[3]
  Inhibition of VEGF-induced proliferation, Ba/F3-KDR (IC50, nM): 12.3 nM
[4]
  Inhibition of VEGF-induced proliferation of HUVEC cells (IC50, nM): 11.8 nM
[5]
  Kd: 0.06 nM
  koff: 1.7e-05 s⁻¹
  kon: 300000 M⁻¹ s⁻¹
[6]
  Kd: 0.34 nM
  koff: 0.000223 s⁻¹
  kon: 660000 M⁻¹ s⁻¹
[7]
  EC50: 7.6 nM
[8]
  EC50: 5.3 nM
[9]
  Kd: < 1.3 nM
[10]
  Kd: < 0.7 nM

B4: E18 (designed binder)
chain: B1 chain with V64G, D69V, G70E, L75E, S77N, I78T
notes: as for B2
[2]
  Inhibition of VEGF-induced proliferation, Ba/F3-Flk (IC50, nM): 2.4 nM
[3]
  Inhibition of VEGF-induced proliferation, Ba/F3-KDR (IC50, nM): 5.4 nM
[4]
  Inhibition of VEGF-induced proliferation of HUVEC cells (IC50, nM): 12.8 nM
[5]
  Kd: 0.46 nM
  koff: 0.000121 s⁻¹
  kon: 260000 M⁻¹ s⁻¹
[6]
  Kd: 0.33 nM
  koff: 0.000195 s⁻¹
  kon: 600000 M⁻¹ s⁻¹
[7]
  EC50: 4.2 nM
[8]
  EC50: 0.9 nM
[9]
  Kd: < 1.2 nM
[10]
  Kd: < 0.5 nM

B5: E29 (designed binder)
chain: B1 chain with V64G, D69V, G70E, L75V, S77M, I78T
notes: as for B2
[2]
  Inhibition of VEGF-induced proliferation, Ba/F3-Flk (IC50, nM): 4.7 nM
[3]
  Inhibition of VEGF-induced proliferation, Ba/F3-KDR (IC50, nM): 10 nM
[4]
  Inhibition of VEGF-induced proliferation of HUVEC cells (IC50, nM): 8.4 nM
[5]
  Kd: 0.19 nM
  koff: 7e-05 s⁻¹
  kon: 360000 M⁻¹ s⁻¹
[6]
  Kd: 0.37 nM
  koff: 0.000288 s⁻¹
  kon: 790000 M⁻¹ s⁻¹
[7]
  EC50: 2.3 nM
[8]
  EC50: 0.6 nM
[9]
  Kd: < 1.5 nM
[10]
  Kd: < 0.9 nM

B6: VR28 (designed binder)
chain: VSDVPRDLEVVAATPTSLLISWRHPHFPTRYYRITYGETGGNSPVQEFTVPLQPPTATISGLKPGVDYTITGYAVTVAQNDHELITPISINYRT
notes: scaffold said to be unchanged from wild type 10Fn3; Flag-tagged in vitro translated protein in the radioactive assay, His6-tagged E. coli protein in BIAcore; tags left out; also called VR28 (I69T)
[5]
  Kd: 13 nM
  koff: 0.00034 s⁻¹
  kon: 30000 M⁻¹ s⁻¹
[11]
  Kd: 11 nM
[9]
  Kd: 11 nM
[10]
  binding result: no binding (tested: 100 nM)
[12]
  Binding to 1 nM KDR, %: 3%
[13]
  Kd: 11 nM

B7: 159(Q8L) (designed binder)
chain: B6 chain with T56A, V77M, N80S, D81G, I85F
notes: clone 159 with Q8 corrected to the wild type L; His6-tagged E. coli protein in BIAcore, tag left out; also called Clone 159 (Q8L)
[14]
  Kd: > 3000 nM
[5]
  Kd: 2 nM
  koff: 0.0001 s⁻¹
  kon: 50000 M⁻¹ s⁻¹

B8: M5FL (designed binder)
chain: B6 chain with T56L, V77K, A78E, Q79R, D81G, H82R, I85F
notes: 10Fn3 clone with WT N-terminus; Tail and tag not included here; also called clone M5FL
[15]
  HUVEC proliferation assay: decrease in proliferation: ~40%
[16]
  fold improvement over the original clone (159Q(8)L): 1000 fold
